Values joined by “and” are separate entries in the source; they are usually repeats but may differ in a detail not shown here. Equal entries are not always repeated.
Tests used:
[1] = target: RSV-F of RSV subtype B lab strains; assay: cell-based or functional assay
[2] = target: RSV-F of RSV subtype A lab strains; assay: cell-based or functional assay

B1: H1H3592P3 (antibody, V domains shown)
VH: EVQLVESGGDLVQPGRSLRLSCVASGFTFDDYAMHWVRQAPGKGLEWVSGVSWSGSTVGYADSVKGRFTVSRDNAQKSLYLQMNSLRAEDTALYYCVKDAYKFNYYYYGLDVWGQGTTVTVSS
VL: EIVMTQSPATLSVSPGERATLSCRASQTILSNLAWYLQKPGQAPRLLIYGASTRATGLPARFSGSGSGTEFTLTISSLQSEDFAVYYCQQYNNWPLTFGGGTKVEIK
- neutralization potency on HEp-2 cells, fold against control I [1]: 2 fold and 5 fold
- neutralization potency on HEp-2 cells, fold against control I [2]: 15 fold and 17 fold

Reference: patent US20140271653A1
